Assay results from publication PMC10441363 (bioRxiv, 2023).

B1: C05 IgG (antibody, V domains shown)
VH: QVQLQESGGGLVQPGESLRLSCVGSGSSFGESTLSYYAVSWVRQAPGKGLEWLSIINAGGGDIDYADSVEGRFTISRDNSKETLYLQMTNLRVEDTGVYYCAKHMSMQQVVSAGWERADLVGDAFDVWGQGTMVTVSS
VL: DIQLTQSPSSLSASVGDRVTLTCQASQDIRKFLNWYQQKPGKGPKLLIYDASNLQRGVPSRFSGGGSGTDFTLIISSLQPEDVGTYYCQQYDGLPFTFGGGTKVVIK
B2: S139\1 IgG (antibody, V domains shown)
VH: QVQLQQSGTELKKPGASVKISCKATGYTFSSYWIEWIKQRPGHGLEWIGEILPEIGMTNYNENFKGKATFTANTSSNTVYMQLSSLTSEDSAVYYCARPYDYSWFAYWGQGTLVTVSA
VL: DIVMTQSQKFMSTSVGDRVSVTCKASQNVDTNVAWYQEKPGQSPKTLIYSASNRYSGVPDRFTGSASGTDFTLTITNVQSEDLAEYFCQQYNSYPYTFGGGTKLEIK

Biological target: hemagglutinin (HA) of A/WSN/1933 (H1N1) (Influenza A virus A/WSN/1933 (H1N1), UniProt I4EPC4)
Sequence (P03454 18-565): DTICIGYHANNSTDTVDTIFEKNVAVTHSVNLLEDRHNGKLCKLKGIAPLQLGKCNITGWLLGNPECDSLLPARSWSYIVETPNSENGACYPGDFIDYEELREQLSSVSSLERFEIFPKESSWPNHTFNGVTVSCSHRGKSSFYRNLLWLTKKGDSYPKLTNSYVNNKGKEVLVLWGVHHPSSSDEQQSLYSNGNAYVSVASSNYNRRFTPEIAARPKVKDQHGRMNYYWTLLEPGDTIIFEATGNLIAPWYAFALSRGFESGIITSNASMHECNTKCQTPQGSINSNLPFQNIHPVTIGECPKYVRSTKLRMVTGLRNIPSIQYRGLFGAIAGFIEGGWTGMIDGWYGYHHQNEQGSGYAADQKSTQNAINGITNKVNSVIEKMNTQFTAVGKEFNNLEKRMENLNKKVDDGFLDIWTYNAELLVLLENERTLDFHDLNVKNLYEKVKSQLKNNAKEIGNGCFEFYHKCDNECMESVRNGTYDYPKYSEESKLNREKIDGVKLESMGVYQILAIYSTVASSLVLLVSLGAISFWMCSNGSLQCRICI
Test: virus aggregation by fluorescence microscopy

Row | Binder | binding result
1 | B1 | binds
2 | B2 | binds
